Data taken from a protein production outcome set (Wang et al. 2014).

Experiment: label from the status in PepcDB records

Row | Sequence | protein production
1 | MNPMAIISITAFVVALVSGVYIFVKNPESRFNRALLLFSALIAYLSLTDFGLYISESYMMADFWVRMGFLWPIVVPVILHMVLLFTGRRPTMPLLAVIYAPAVVIAALELTTDLITAGPTMTSWGWTFSAAENSLPYQISNIWGFIIASVAIILVALHWRSSRGSDRTQAHYLLTGLILPVLAGVLTDLVLPAAGMAVPSLTDPSAALGVSIIAYGVMRFRLPILSPLNAAMDIVRNMNTFLIITDLGLNIHYVNPATERLTGRRAAEFSGRKVTEVLKFDELSTGSIMESRLRGKDEWIPVIVSAGHVHGSGGEHLGLLFTGSDMRPILEMEEKLRRREDRLVLLTEHMADGLGEFDRDFNFRYLSPSVKKITGYDHEMLTGMSALDFMDYLHPDDTEEVKKLILTRGEGHRATFRIRRPDGNYRWVEYVDRPIRTDGDIEGYVFGLRDIHEHKLAEEALIVSKEKFRELFRNMRSGIIAVESDGKGFRVKSMNPAAERMEGVSCAAIQGMDLQEALPEIWNSPIRRALQEIRETGEAIHCPEVECGEGWFDVHLHQLSTGEVVIICTDITLRKQYEDELRASLREKEALLREVHHRVKNNFQVISSLINLQLDDAEDPAPLRDLQSRIQSMALVHELLYESEDLTSIDMGRYIERLTSSIVNSHHNGEIEVEVAVGDITLPLETAIPLGLIINELVTNSFKHAFTSGGMISVELEEHGGEFTLTITDNGVGLPPDFIIEDSDSLGLRLVAGLVDQIDGTLEVSGEDGTRFRLTFGVVPYRRRV | failed
2 | MNPTAGKTSATGEQMASTSADTYSPSRDDFAAMLDESFAGGNLQESSVVKGKVVAIEKDMAVIDVGLKTEGRVALREFSGPGRDSEIKVGDEVEVFLDRIENALGEAVLSRDKARREESWGKLEKAFQNNEKVNGVIFNQVKGGFTVDLDGAVAFLPRSQVDIRPIRDVAPLMNNSQPFQILKMDRRRGNIVVSRRTVLEETRAEQRQELVQNLEEGQVIDGVVKNITDYGAFVDLGGIDGLLHVTDIAWRRVNHPTEVLSIGQTVKVKIIKINHETHRISLGMKQLLDDPWQGIEAKYPLGARFTGRVTNITDYGAFVELEPGIEGLIHVSEMSWTKKNMHPGKIVSTSQEVEVQVLEVDSVKRRISLGLKQTMRNPWEVFVEGHPTGSVVEGEVKNKTEFGLFLGLEGDVDGMVHLSDLDWKLPGEQVIDNYKKGDMVKAVVLDVDVEKERISLGIKQLEGDPFAEPGDVKKGAVVTCEVLEVKESGIEVKIAGTDFTTFIKRSELARDRNDQRAERFAVGEKVDARVIQFDKKARKVQVSIKALEVAEEKEAIAQYGSSDSGATLGDILGTALKNRDSK | failed
3 | MNQAMDTKQIAPFTLALPEGEALPLVCDSPHSGTFYPADFGAVVAPERLRGGEDTHVDALWEAVPRVGGTLLAATFPRVYIDPNRMLDDIDPAQLEGPWPTPLAPGEKTRLGYGLIWSNVDAATPIYDRKLTVAEVQRRINRYYRPYHAALTEAVEGAYQRFGAVWHLNLHSMPNNAYERLKIQSPRPLADFVLGDRDGTTCEPGLVDLVERELREKGYTVARNDPYKGVQLIAQIGRPAERRNSLQIEIRRPLYMEEGTRERNEGFATLQRDLTLLTLRIAEYVRRGV | not failed
4 | MNQLTQYTITEQEINQSLAKHNNFSKDIGLPGVADAHIVLTNLTSQIGREEPNKVTLTGDANLDMNSLFGSQKATMKLKLKALPVFDKEKGAIFLKEMEVVDATVQPEKMQTVMQTLLPYLNQALRNYFNQQPAYVLREDGSQGEAMAKKLAKGIEVKPGEIVIPFTDLEHHHHHH | not failed
5 | MNQNNHFRLTLSTLLQQCQQDITSLPTAMRAVFSWQRGLNELKTLRRTTKLMMSTMLIVTIIGFILGRDYSLHGWIGLLTGITVVINLILVDQGRLTNYSWGIIACAAWLTTAITNRLIGDIASQSFYLIMQFVGITVWHRKMAAQPDASELTGRKLSKLAGCAWFALAVLVYAIVLHFSKQLNGNQIYLDATLLPLGIVGSVLMVNGYRSQWVAWITLDVINVIIWFNQLKGFSPAAASMLALQLVMLANALYGAYLWFFGQNTQQDKLDTH | failed
6 | MNQNQNKKTKIVALSMMNSQTSGNPSRGTTKFESYTFDYWQYIDTLVYWGGSSGEGIIVTPSADVIDEAHSNGVPVLGTIFLPPKEYGGKVDWVKTMLKKDEQGQYPFASQMVKVAKTYGFEGWFINEETQGLNADDAANMKALIQQVKKEDSSLQIMWYDAMTKDGKVDWQNQLNDQNATFVQDKAADAMFLNFWWTQNNLADQKLLEKSNLYAKNHNIDPYNIYAGIDVQAKDVQTPVKWNLLEKGNQATQTSIGLYAASATYTNASNWDDFQNRESAFWVNQKADPRQVDHSVNESWTGLSKYVLEKSAISGNEFNTNFNLGNGYNYFKAGQKISEMDWNDRSLAGILPSYRWIIDNEGKNKISPSFDFANAYNGGNSLKFMAEHLDAGKSSNITLFASDLKIAMGAKFSVSMRSDQALKVSAILELANGQKVSIAGDKSLTENWSKLEHHHHHH | not failed
7 | MNQQDIKQKVLDVLDHHKVGSLATVAAGAPHSRYMTFFHDGLTIYTPTSKETHKAEEIENNPNVHILLGYDCEGFGDAYVEVAGKAKINNSAELKDKIWSSKLERWFDGKDDPNLVILEIEPEDIRLMNAGEKTPVSLEL | not failed
8 | MNQQLLAKTFVELADNLVADFDLIDFLRLLTDRCVGMLDASAAGVLLADRNGELRVMAASDEQVRLLELFQLQNDEGPCLDCFRTGAPVTVPDLSAVTARWPRFAVQARRSGFGAVQALPMRLRDEVVGALNLFRATPGPFDPAATPLAQALADVATISLLQQRTAHRSTVLNEQLQTALN | not failed
9 | MNQRLDHYLKNTNQCETRSKAIDLIKRGRVFVNNFQVLKPSFLVKQTDSVEIKNDEMYFVSKGGYKLLKIIKEINLIIKNFVIADLGSSTGGFTDCCLQLGAKKIYAIDVGVDLLHPSLKKSYKIINYEKTNVKNLDKSYFLEDLDLIVGDLSFISLEQIFPIIKKISSPKTLLLLLIKPQFELGKDVASKYKGLIQNQKLQQLAINKIINLAKNYDFECKHLTPTDIFDEKKQNQEYMIFLQKHEK | failed
10 | MNRFLTSIVAWLRAGYPEGIPPTDSFAVLALLCRRLSHDEVKAVANELMRLGDFDQIDIGVVITHFTDELPSPEDVERVRARLAAQGWPLDDVRDREEHA | not failed
11 | MNRHISFERLHNFRDLGGYTTADGRVVRWGRLFRSDSLGKLTGEEWERFLALGIGTVIDLRYPWEIDAKGRVPEHPAFTYHNLSIEHRPYDQAGLGPDVETGPFLAEKYMEVAHDGVKELRQVVEVIAAVATSTDESVVFHCASGKDRTGLVAALVLALLGVPESQIVEDFTLTELATERLLADWRADHPGQEPTWPGYGRAPADVMRLFLDALTHQHGSMADYARDLLRIDEGLIAALRRNLLEPAAEPELTFRRADHRDLPELVRLRDSAARWQIARGIDQWKPGQLGEDHFRARLADGEIWIATLGPTGPTAGAWELWWDDPAAWGPQPPSAGYVHRLMTDRRTAPPGTGRLMLAEAERRIAETGRTLCRLDCLASNPRLRQYYETAGYTVVGEQSSKDGGLGNTYAVTLLEKTVPEALTPRSTKPAR | failed
12 | MNRKFTARGPKRIEWAPHSCYHRKAHGFRPGTLSARHRSVRTPRSIVGIRTPHPHPNPTDHDFATMTIRQSALFALALGTLGLLALSGCSAGNPNMSAAEDAMEQERYERALANVDSAIAQDSANAQAYAMKARILRQMADSTAPPEAYKQRYRQARQAEEKAIKFDPGRRSDIKNQRELAFIQEFQKGADAFNRAQQSSQKSDYLRAAAYFGAAGAIRPDSTGPIRNEAFARLQAARLEGGDQGMQEMSNVIPILERYLKKEDEPEKDVYSILSQLYRQGDQPERALEVTERALDDLSSRPTHFRIQGTRGLSYTGTIEAGGTSRQVEGTTPDRIELSTSDGMVTGTFRKQDGGKKQTKGRLQVGLYTQGTQVANSRTTALEEITISEDLSSVTPLAELQNQRLSALNSTGNTEKAMQAYRQQIERNPENARYRYNYGSLLLNSDRYDEAIEQLSEAVKLDSDDPKKQYNLGAAYLNKGVVLQDSLVSVRDSVMAQNRKPTQEEAQMIEDLDEQRLQFFQNAIPPLERARQLSGANGRYRQNACSALLQAYVQTEQTDKAEDVKQCAGAGGNTSGGSGGR | failed
13 | MNRKMFGELISEAIAMFIIIALGESAAAMYILYDPSPYQNAYWGLCICWGLAVTIAIYVTASVSGTHANPAVTLALALYRGFPWKKVLPYWAAQVIGAFIGAMIVYQLYSPVIDYYNHIHQLTRDAGGAAGVFFTSTGMAITPIHALGDEIILTAFLVFGIFAITERFNEAAPTANSGALVIGLLVATIGACMGYLEGWAINPARDLGPRLFAFLAGWGESAFPGKDHYWWIPIIGPLIGGVMGATAFQCLIYPFLPARVQAKQQAAILLHRKHP | failed
14 | MNRLLNEKVEEFKKGVLKAGWFIEKMFRNSISSLVERNESLAREVIADEEVVDQMEVEIQEKAMEVLGLFSPIGKPLLTVTAGIRVAELIENIADKCHDIAKNVLELMEEPPLKPLEDIPAMANQTSEMLKFALRMFADVNVEKSFEVCRMDSKVDDLYEKVREELLLYMMESPKYVKRALLLLEIAGNIEIIADYATNIVEVSVYMVQGEAYKCYHDELLLFKKSGGVLFESSD | not failed
15 | MNRNLLLFASGSFVSLIGTRIYQVALAWWLYSKTGSSEYVGLFMISSFLPAIIVSPFAGTVVDRHSRRNMMVVMDILRGVLFMYLFLMEYFSELTMALLLIVTVLVSVFDSFFNPAVDSLLPDLVRKENLVRANSLYRLLKNLSKILGPALGSLLLKVVGLAGVILINSLSFLISGIFEMFIKVEEKHLKKVSKERNMWQDIKSALLYIRSVRFILVTILVIAIMNFFTGSMHVLLPEHVSKLGKSEWVYGTLMSMLSFGGLIVTFLMATIRTRASVKTLGLNLVGYGLAVFVFAMTGNHWLMFAMYFLIGIFQTLFNINVITLLQLAIPEEMRGKIFSLISAVSFSLLPVSYGFFGFLSSYVATAHIFITTSMALIAGGVLISLQRFEG | failed
16 | MNRSANTNAVLLLLLCAFFWGASFPVGKHALGEVHALTLVIWRFAIAAACLFAFIKWKRIPIPELKAKQWLWVVGVSIVGVGGLNLGLFTGLAQTNASNGALIMALSPLTTSLIGSLLQRKLLTRGAVFSLVVCLSGVLLVLTNGELKRLLSFEFNHGDQIIFLGMLCWSLYTYLTQGISRWMPMIPYTFIGMLAGLGVISVVAAFSAEAHPVQESLAISQIVLADLLFIGVFGTVGGYLLWISGVKQLGAANASLFFNFVPIFAALTAVTFGQNVASLQLLGMAIVISGLLLPRLTHWRQQRFARMG | failed
17 | MNRSNQDITQPTAIIAVVGVGAEQGIGAAVCRRFAQEKFKVYVAGRTLNKVEKVAAAIHRQGGQAVAYVLDAENEQQLQTLFDHLNDQPEALAAVIHNVGGNIPSIFLQSSLKFFSQMWRSTFLSSVLVAQRSLSIFQKQQQGTLIFTGASASLRGKPFFAAFSMGKSALRSYALNLAELYRSQNIHVAHVMVDGMVDGDRVNKALWGLGRLARLTRGTGGLNIDAIAENYWMLYQQNVDLWTHELDLRPYQEKF | failed
18 | MNRVEPPYDVKEALVFTQKMAQLSKALWKSIEKDWQQWLKPYDLNINEHHILWIAYQLNGASISEIAKFGVMHVSTAFNFSKKLEERGYLRFSKRLNDKRNTYVQLTEEGTEVFWSLLEEFDPTRNAVFKGSQPLYHLFGKFPEVAEMMCMIRHIYGDDFMEIFETSLTNIDNDFESVNGKLKKKAKDSAADEPAEELEPVNS | not failed
19 | MNRVFKKNSVFAIIFAACSWGGFLDRAYAEACPSEDFSKFLTVFSATPEVQQRFTAVKVQALVLKPAKQTDRFEPQTTDVANASLAYPLMGPIISDKTDGVQIEAVDDRHVRVIDKRAGHSDIKVFNFSRQTCWVLAGMEDWSISEKDLSAAVQPKMNRSESLCFQRGRAYAGLGGVEQYPLTAEFFEAALENYVCAAASGDPQASLNAASLSLSGMAPQLETEKVEALFKAASTTLADGAAGLSSFYCYGNNVAADGPCQHPEQAEKELVRAVSMGSSDATNYLGYTLETGELRTTDLDRAIACYRLAASMGNQTAADNLKRLSKQATDVSTAGHCY | failed
